Patent EP4613288A1

Experiments:
[1] = molecular target: human activated protein C (human) (UniProt P04070); test: cell-based or functional assay
[2] = molecular target: human activated protein C (human) (UniProt P04070)

Mean Value of the Clotting Time (s), Protac-induced APTT, FIX-deficient plasma, antibody 0.5 µg/ml [1] | Mean Value of the Clotting Time (s), Protac-induced APTT, FIX-deficient plasma, antibody 1 µg/ml [1] | Mean Value of the Clotting Time (s), Protac-induced APTT, FIX-deficient plasma, antibody 5 µg/ml [1] | Mean Value of the Clotting Time (s), Protac-induced APTT, FVIII-deficient plasma, antibody 0.5 µg/ml [1] | Mean Value of the Clotting Time (s), Protac-induced APTT, FVIII-deficient plasma, antibody 1 µg/ml [1] | Mean Value of the Clotting Time (s), Protac-induced APTT, FVIII-deficient plasma, antibody 5 µg/ml [1] | minimal dose inhibiting aPC anticoagulant activity, Protac-induced APTT, human plasma deficient in various coagulation factors [1] | fold increase in affinity compared to the humanized antibody without mutations in the CDR regions [2] | Binder
181 s | 198 s | 180 s | 182 s | 187 s | 162 s | < 1 µg/mL | 100 fold | anti-aPC monoclonal antibody HAPC-14-6 (antibody, V domains shown) VH: EVQLVESGGGLVQPGGSLRLSCAASGFTFSFYYLNWVRQAPGKGLEWVGDIRLKKNNYEKHYAESVKGRFTISRDDSKSITYLQMNSLRAEDTAVYYCAREGDYFDYWGQGTTVTVSS VL: DIQLTQSPSSLSASVGDRVTITCRASESVDSFGATFMHWYQQKPGKAPKLLIYLASRLGSGVPSRFSGSGSGTDFTLTISSLQPEDFATYYCQQNNEDPYTFGQGTKLEIK
584 s | 567 s | 404 s | 600 s | 629 s | 389 s | > 100 µg/mL |  | murine antibody HAPC1573 (antibody, from another filing, V domains shown) VH: EVKLEESGGGLVQPGGSMKLSCVASGFTFSNYYLNWVRQSPEKGLEWVADIRLKSNNYEKHYAESVKGRFTISRDDSKSSVYLQMNNLRAEDTGIYYCIREGDYFDYWGQGTTLTVSS VL: NIVLTQSPASLAVSLGQRATISCRASESVDSFGATFMHWYQQKPGQPPKLLIYLASNLESGVPARFSGSGSRTDFTLTIDPVEADDAATYYCQQNNEDPYTFGGGTKLEIKR
